Sequences and labels used below:
B1: Ankyrin repeat and SAM domain-containing protein 6, residues 774 to 836; numbered along this chain, Q68DC2 (parent)
chain: DEDELTGILKKLSLEKYQPIFEEQEVDMEAFLTLTDGDLKELGIKTDGSRQQILAAISELNAG

± gives the uncertainty stated by the source.

This series covers variants of B1. Kind of series: abundance fitness (aPCA) (normalised: wild type 0, dead -1); higher = more abundant; growth selection in yeast, the domain comes from the species named. The settings on record: Homo sapiens.
Turning to A62E, the abundance fitness worked out at 0.035 ± 0.051.

Consider A62W, for which the abundance fitness was -0.475 ± 0.086. Then A62I, with -0.325 ± 0.064; and A62G, with 0.011 ± 0.041; and A62R, with -0.048 ± 0.043. With A62P, the abundance fitness was -0.294 ± 0.075. Take A62H: the abundance fitness is -0.074 ± 0.1.

On to G48E, for which the abundance fitness stood at 0.107 ± 0.054. For G48S, the abundance fitness came out at 0.007 ± 0.048.

In the case of G48A, the abundance fitness is -0.047 ± 0.044.

Take G48M: the abundance fitness was -0.113 ± 0.07.

Consider L39M, for which the abundance fitness was -0.437 ± 0.095. The same measure for L39A: -0.59 ± 0.06. Consider L39E, for which the abundance fitness is -0.625 ± 0.071. Turning to L39Y, the abundance fitness was -0.673 ± 0.089. Turning to L39S, the abundance fitness is -0.683 ± 0.051. With I57S, the abundance fitness is -0.282 ± 0.051. Consider I57Y, for which the abundance fitness was -0.696 ± 0.087.

On to I57F, for which the abundance fitness was -0.675 ± 0.088.

For the variant I57N, the abundance fitness was -0.437 ± 0.073. Consider L14P, for which the abundance fitness is -0.845 ± 0.1.

Turning to L14Q, the abundance fitness was -1.17 ± 0.21. As to L14H, the abundance fitness was -1.01 ± 0.34. On to L14E, for which the abundance fitness is -0.777 ± 0.1. As to K40A, the abundance fitness was -0.121 ± 0.044. Take K40H: the abundance fitness was -0.286 ± 0.074.

With K40T, the abundance fitness was -0.138 ± 0.068. On to G7Y, for which the abundance fitness is -0.044 ± 0.11. Turning to G7W, the abundance fitness is -0.005 ± 0.063. G7C: the abundance fitness is -0.072 ± 0.089. Turning to G7V, the abundance fitness was -0.191 ± 0.057. On to G7H, for which the abundance fitness amounted to 0.185 ± 0.1. In the case of G7R, the abundance fitness was determined as 0.108 ± 0.045. Turning to F21G, the abundance fitness was -0.579 ± 0.079. F21I: the abundance fitness is -0.615 ± 0.17. For A55C, the abundance fitness turned out to be 0.046 ± 0.051. Turning to A55E, the abundance fitness was 0.031 ± 0.075. On to A55V, for which the abundance fitness was -0.301 ± 0.049. As to A55G, the abundance fitness amounted to 0.105 ± 0.041.

Regarding A55R, the abundance fitness was 0.108 ± 0.037.

For the variant A55I, the abundance fitness was -0.203 ± 0.095. The same measure for M28K: -0.025 ± 0.061; for M28V: -0.219 ± 0.054. On to M28T, for which the abundance fitness stood at 0.007 ± 0.053. Regarding R50N, the abundance fitness is -0.653 ± 0.099.

As to R50K, the abundance fitness was -0.582 ± 0.087. As for R50I, the abundance fitness was -0.292 ± 0.09. For R50T, the abundance fitness is -0.71 ± 0.076. Then R50P, with -0.649 ± 0.091; and D1G, with -0.039 ± 0.078. Turning to D1Y, the abundance fitness worked out at 0.031 ± 0.088. Consider D1Q, for which the abundance fitness was determined as 0.002 ± 0.14. Then D1T, with 0.007 ± 0.13; and D1M, with 0.351 ± 0.14. Regarding Q18R, the abundance fitness was -0.025 ± 0.071.

As to Q18E, the abundance fitness was -0.119 ± 0.046.

Take Q18P: the abundance fitness was -0.786 ± 0.092.

With Q18H, the abundance fitness is -0.221 ± 0.17. As to Q18M, the abundance fitness is -0.035 ± 0.068. For T33A, the abundance fitness was -0.037 ± 0.053.

With T33F, the abundance fitness is -0.642 ± 0.17. With T33P, the abundance fitness was -0.712 ± 0.074. With E4R, the abundance fitness is -0.602 ± 0.062.

Consider E4G, for which the abundance fitness was -0.254 ± 0.054. E4C: the abundance fitness is -0.016 ± 0.065. For the variant E4A, the abundance fitness is -0.527 ± 0.078. Take E4H: the abundance fitness was -0.31 ± 0.16.

Take E4I: the abundance fitness amounted to 0.179 ± 0.15. The same measure for E4P: -0.619 ± 0.093; for S58R: 0.022 ± 0.04; for S58G: 0.034 ± 0.04. As for Q52L, the abundance fitness was -0.132 ± 0.04. The same measure for Q52M: -0.302 ± 0.06; for Q52F: -0.667 ± 0.098; for Q52A: -0.04 ± 0.048.

As to Q52K, the abundance fitness is -0.095 ± 0.068. As for Q52C, the abundance fitness is -0.12 ± 0.058.

On to Q52Y, for which the abundance fitness was -0.574 ± 0.084. Take Q52E: the abundance fitness was determined as 0.079 ± 0.062. Regarding T46P, the abundance fitness was -0.048 ± 0.063.

For T46Q, the abundance fitness is -0.201 ± 0.07. For T46H, the abundance fitness came to 0.151 ± 0.065. Regarding E41G, the abundance fitness was -0.092 ± 0.067. Take E41P: the abundance fitness was -0.658 ± 0.054. With E41W, the abundance fitness was -0.498 ± 0.052. For the variant E41D, the abundance fitness was -0.044 ± 0.073.

For E41T, the abundance fitness is -0.039 ± 0.053. As to E41L, the abundance fitness is -0.205 ± 0.041.

Take N61I: the abundance fitness is -0.449 ± 0.074. Turning to N61T, the abundance fitness was -0.001 ± 0.043. Turning to N61R, the abundance fitness is 0.007 ± 0.043.

Regarding N61Q, the abundance fitness is -0.127 ± 0.05.

As for N61W, the abundance fitness is -0.531 ± 0.055. Take N61C: the abundance fitness is -0.314 ± 0.064. As to I44S, the abundance fitness was -0.651 ± 0.05. As to I44V, the abundance fitness came to 0.037 ± 0.047. For I44P, the abundance fitness was -0.746 ± 0.09. The same measure for I44L: -0.245 ± 0.042; for I44H: -0.806 ± 0.13. For I44W, the abundance fitness is -0.654 ± 0.061. On to K45M, for which the abundance fitness was 0.008 ± 0.1. K45E: the abundance fitness amounted to 0.013 ± 0.079.

K45G: the abundance fitness was -0.114 ± 0.049. Consider K45L, for which the abundance fitness is -0.066 ± 0.045. As for K45I, the abundance fitness is -0.348 ± 0.091. Consider E59T, for which the abundance fitness was -0.106 ± 0.069. Then E59M, with -0.169 ± 0.065.

Regarding E59A, the abundance fitness was 0 ± 0.055. For the variant E59S, the abundance fitness is -0.113 ± 0.046. For the variant E59I, the abundance fitness is -0.505 ± 0.1. On to E59K, for which the abundance fitness was 0.02 ± 0.071. For the variant D47Q, the abundance fitness is -0.054 ± 0.054. D47Y: the abundance fitness was -0.114 ± 0.083. Consider D47A, for which the abundance fitness is -0.061 ± 0.045. Take D47F: the abundance fitness was -0.14 ± 0.058. The same measure for L32I: -0.181 ± 0.042; for L32W: -0.536 ± 0.058; for L32E: -0.271 ± 0.071. In the case of L32P, the abundance fitness is -0.199 ± 0.056. As for L32G, the abundance fitness is -0.251 ± 0.048. Consider E22H, for which the abundance fitness is -0.394 ± 0.094.

With E22C, the abundance fitness is -0.299 ± 0.072. E22K: the abundance fitness was -0.103 ± 0.052.

As to E22V, the abundance fitness is -0.256 ± 0.048. Then E22D, with -0.149 ± 0.072; and E22M, with -0.091 ± 0.072; and E22F, with -0.402 ± 0.074. Then L54W, with -0.813 ± 0.059; and L54V, with -0.252 ± 0.054; and L54T, with -0.312 ± 0.057. L54K: the abundance fitness was -0.245 ± 0.048. On to L54A, for which the abundance fitness was -0.359 ± 0.056.

In the case of L54R, the abundance fitness was -0.337 ± 0.041. For the variant L54D, the abundance fitness is -0.59 ± 0.11.

L54Y: the abundance fitness was -0.634 ± 0.085. As for G63H, the abundance fitness was -0.216 ± 0.13.

Regarding I53H, the abundance fitness is -0.481 ± 0.07. Turning to I53W, the abundance fitness was -0.904 ± 0.069.

Consider I53F, for which the abundance fitness is -0.432 ± 0.1.

I53R: the abundance fitness was -0.559 ± 0.052.

Turning to T35I, the abundance fitness was -0.695 ± 0.11. As to T35Q, the abundance fitness is -0.026 ± 0.056. Then T35D, with 0.037 ± 0.091; and T35H, with -0.302 ± 0.082; and T35N, with -0.078 ± 0.064.

Take T35S: the abundance fitness was 0.037 ± 0.06.

Regarding T6I, the abundance fitness was -0.436 ± 0.29. As to T6A, the abundance fitness came out at 0.146 ± 0.11. Then D38F, with -1.28 ± 0.2; and D38C, with -0.773 ± 0.091; and D38M, with -0.611 ± 0.099.

D38S: the abundance fitness is -0.232 ± 0.042. Then D38P, with -0.645 ± 0.063; and D38E, with -0.072 ± 0.069; and E15G, with -0.433 ± 0.05. As for E15N, the abundance fitness is -0.492 ± 0.36.

Consider E15S, for which the abundance fitness is -0.143 ± 0.052. D3N: the abundance fitness was -0.074 ± 0.064. For the variant D3I, the abundance fitness is -0.082 ± 0.1. With D3M, the abundance fitness was 0.209 ± 0.08.

For the variant D3Q, the abundance fitness was 0.08 ± 0.056. D3K: the abundance fitness worked out at 0.162 ± 0.067. D3A: the abundance fitness was -0.157 ± 0.054.

In the case of I20F, the abundance fitness is -0.352 ± 0.17. Take I20W: the abundance fitness is -0.252 ± 0.097.

On to I20L, for which the abundance fitness is -0.124 ± 0.06. The same measure for I20N: -0.015 ± 0.097.

Source of the values: the Human Domainome abundance scans (Beltran et al. 2025).
